Results: article PMC11063191, “Galectin-3 impairs calcium transients and β-cell function” (Nature Communications, 2024)

Biological target: T1, Mouse Gal3 protein (recombinant) (mouse, UniProt P16110 1-264)
T1 construct: Galectin-3, mouse, bought protein; R&D is named as the source only for the BLI assay; also called galectin-3; source: bought: R&D
Experiment: BLI; His-tagged CACNG1 (30-109) captured on Ni-NTA biosensors, Gal3 in a concentration gradient, Octet (ForteBio), 30 °C
Settings: both partners purified

T1 sequence (P16110 whole entry): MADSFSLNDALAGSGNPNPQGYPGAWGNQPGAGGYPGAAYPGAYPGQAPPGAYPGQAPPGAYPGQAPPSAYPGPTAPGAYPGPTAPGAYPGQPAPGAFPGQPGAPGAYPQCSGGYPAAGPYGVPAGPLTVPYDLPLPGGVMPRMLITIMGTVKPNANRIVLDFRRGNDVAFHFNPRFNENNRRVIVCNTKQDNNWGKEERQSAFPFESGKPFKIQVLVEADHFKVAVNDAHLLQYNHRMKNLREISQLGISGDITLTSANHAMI

Kd: 180 nM
B1: Extracellular domains of mouse CACNG1 (30-109 AA) with His tags (domain or fragment, UniProt O70578 30-109, looked up)
chain: DHWAVLSPHLEHHNETCEAAHFGLWRICTARVAVHNKDKSCEHVTPSGEKNCSYFRHFNPGESSEIFEFTTQKEYSISAA
modifications: includes the two glycosylation sites
notes: CACNG1, mouse, extracellular domains, residues 30-109, including the two glycosylation sites
